Data on one molecule can be found in PMC12298160, “Integrated Transcriptomic and Proteomic Analyses Reveal CsrA-Mediated Regulation of Virulence and Metabolism in Vibrio alginolyticus”.

This data set has as its target CsrA (6xHis-CsrA) (UniProt A0A2I3CA03 1-65). The data set can be described thus: EMSA; high affinity. The note with it: protein: recombinant; tags: 6xHis (named 6xHis-CsrA); chain copies: 2; label: biotin. On the technique in general: In EMSA bound probe runs differently from free probe, usually more slowly.

B1: rraA -64 to +36 RNA (ssRNA)
RNA: AAGGUAUAGAAAAGGAUACUGCUCACUGAAGCAACGCUUGGGUGAGAAAAUUCACGGAGGAAAUAUGAGAGACAUUACACCCGAUAUUUGUGACCAAUUU
Consider B1, for which the binding result is given as “binds”.
